Tests used:
[1] = Optical density of antigen and lipopeptide formulations (450 nm); format: physicochemical; settings: constant OVA (25 μg) plus increasing lipopeptide, up to 3-fold molar excess, PBS
Procedure: Optical density of antigen and lipopeptide formulations. A constant amount (0.55 nmol; 25 μg) of OVA was mixed with each lipopeptide at different protein:lipopeptide molar ratios in 50 μl of PBS in a 96-well plate at room temperature. The optical density of these solutions was then measured on a plate reader at a wavelength of 450 nm.

[2] = test system: CD8+CD45.1+ OT-I cells; assay: In vivo proliferative T cell responses, adoptive transfer of CFSE labelled OT-I cells; parameters: species or system C57BL/6 mice; settings: 3 μg OVA alone or with 3-fold molar excess lipopeptide, s.c., inguinal LNs day 3
Text: In vivo proliferative T cell responses. […] Inguinal LNs were obtained 3 days after vaccination and CFSE intensities of CD8^+CD45.1^+ cells measured by flow cytometry.
To characterise early events associated with vaccine-mediated induction of CD8^+ T cell responses, the present inventors utilised the adoptive transfer of CD8^+ T cells from OTI transgenic mice that express the Vα2 TCR specific for OVA257. […] Analysis of OTI T cells in the draining lymph nodes of vaccinated animals was then carried out 3 days later and the loss of CFSE in these cells was used as an indicator of T cell proliferation.

[3] = Dynamic light scattering analysis of vaccine formulations; format: physicochemical
Procedure: FIG. 3. Particle size distribution of antigen and lipopeptide formulations. OVA (25 μg) was mixed with each lipopeptide at a 1:3 molar ratio of protein to lipopeptide in […] of PBS in a 96-well plate at room temperature. The size distribution of particulates in samples were then analysed by dynamic light scattering with each profile depicting the hydrodynamic radius (nm) of particles detected versus the percentage intensity of scattered light (% intensity).
To determine the size of complexes formed between OVA and each lipopeptide, we analysed these formulations by dynamic light scattering.

Molecule: CCCCCCCCCCCCCCCC(=O)OCC(CSCC(N)C(=O)N[C@@H](CO)C(=O)N[C@@H](CO)C(=O)NCCCC[C@H](NC(=O)[C@H](CCCCNC(=O)[C@H](CCCCNC(=O)[C@@H](N)CCCNC(=N)N)NC(=O)[C@@H](N)CCCNC(=N)N)NC(=O)[C@H](CCCCNC(=O)[C@@H](N)CCCNC(=N)N)NC(=O)[C@@H](N)CCCNC(=N)N)C(N)=O)OC(=O)CCCCCCCCCCCCCCC (some centres unmarked) [R4Pam2Cys]
- optical density (OD) of solutions, solubility [1]: increase in OD

Molecule: OVA: protein antigen OVA used as model antigen, alone
- division of T cells (percentage of OT-I cells which proliferated) [2]: ~37%

B1: OVA: protein antigen OVA used as model antigen, alone (protein, UniProt P01012 2-386, looked up)
Ovalbumin: GSIGAASMEFCFDVFKELKVHHANENIFYCPIAIMSALAMVYLGAKDSTRTQINKVVRFDKLPGFGDSIEAQCGTSVNVHSSLRDILNQITKPNDVYSFSLASRLYAEERYPILPEYLQCVKELYRGGLEPINFQTAADQARELINSWVESQTNGIIRNVLQPSSVDSQTAMVLVNAIVFKGLWEKAFKDEDTQAMPFRVTEQESKPVQMMYQIGLFRVASMASEKMKILELPFASGTMSMLVLLPDEVSGLEQLESIINFEKLTEWTSSNVMEERKIKVYLPRMKMEEKYNLTSVLMAMGITDVFSSSANLSGISSAESLKISQAVHAAHAEINEAGREVVGSAEAGVDAASVSEEFRADHPFLFCIKHIATNAVLFFGRCVSP
- Hydrodynamic diameter (nm) ([3]; DLS at 25° C in PBS, mixtures: OVA 25 μg, 1:3 molar ratio protein to lipopeptide): 199.5 ± 42.6 nm
- % Pd (polydispersity) ([3]; DLS at 25° C, <20% is considered monodispersed): 27.1 ± 11.5%
- particle size of sample alone ([3]; OVA or lipopeptide alone): 157-242 nm
